This note sets out measurements from the supplement of paper PMC10567573.

A short description of this series: protein stability index of a GFP-peptide fusion (GPS, HEK-293T) (PSI 1-6); higher = more stable.
[1] abbreviates: treatment: DMSO, c terminus: a fixed tail appended.
[2] abbreviates: treatment: MLN4924 1 uM, 8 h, c terminus: a fixed tail appended.
[3] abbreviates: treatment: DMSO, c terminus: native.
[4] abbreviates: treatment: MLN4924 1 uM, 8 h, c terminus: native.

± gives the standard deviation.
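Also: 24-mer peptide tiles fused after GFP, lentivirally expressed, FACS-sorted into six equal bins by GFP/DsRed ratio, decoded by Illumina sequencing, PSI is the read-weighted mean bin number.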

Regarding NKLWELCCQWLKPKMRSKEQILEL [ZNF449], the protein stability index came to 2.62 ± 0.35 under setting [1] and 2.9 ± 0.56 under setting [2].

For NKRERSKLKNLRRKQRRRERWLQK [RNF180], the protein stability index amounted to 4.32 ± 0.24 under setting [1] and 4.49 ± 0.38 under setting [2].

Turning to NKTKPIWTRNPDDITQEEYGEFYK [HSP90AB1], the protein stability index reads like this: under setting [1], 4.36 ± 0.42; under setting [2], 4.49 ± 0.44.

In the case of NKVKVLDAPVPDCLGVHCDFHQGL [FSD1], the protein stability index by setting is: under setting [1], 3.26 ± 0.078; under setting [2], 3.43 ± 0.24.

With NLASYDVCSILLGTSTLLVWVGVI [MCOLN1], the protein stability index came out at 3.08 ± 0.6 under setting [1] and 3.19 ± 0.7 under setting [2].

Take NLLGEAAGGQDMADSMLMQGSRGL [HDAC6]: the protein stability index reads like this: under setting [1], 4.1 ± 0.34; under setting [2], 4.09 ± 0.081.

Take NLSKSRKILRSMSRKVTTNKLLLS [VTI1B]: the protein stability index came to 2.85 ± 0.35 under setting [1] and 2.92 ± 0.29 under setting [2].

With NNFDNLDFDLDLVPWESDIWDINN [ATF6], the protein stability index is, setting by setting: under setting [1], 3.2 ± 0.21; under setting [2], 3.46 ± 0.11.

For the sequence NQAPSGPVASSGEFFGSASQPAVE [CLINT1], the protein stability index by setting is: under setting [1], 5.16 ± 0.24; under setting [2], 5.24 ± 0.43.

With NRGNSAGGLQHRVTAKTAPDVLRT [PTPRD], the protein stability index is, setting by setting: under setting [1], 3.98 ± 0.47; under setting [2], 3.81 ± 0.31.

Take NRILAERIAKEIQVIPLQRDDED [IMPA1]: the protein stability index runs as follows: under setting [3], 3.47 ± 0.1; under setting [4], 3.65 ± 0.12.

For NSAHHCVVEVENFLFVLGGEDQWN [KLHL14], the protein stability index under setting [1] was found to be 2.12 ± 0.27 and the protein stability index under setting [2] was determined as 2.07 ± 0.3.

NSPLHIAALNNHPDIMNLLIKSGA [FEM1C]: the protein stability index under setting [1] amounted to 2.54 ± 0.1 and the protein stability index under setting [2] was 2.78 ± 0.12.

In the case of NVNRTTANNDHTVLSLACAGGHLA [ANKRD17], the protein stability index reads like this: under setting [1], 3.57 ± 0.3; under setting [2], 3.7 ± 0.36.

For the sequence NWLGRPSKVLSLQDLCCRTIVSCT [RAB40A], the protein stability index reads like this: under setting [1], 2.74 ± 0.08; under setting [2], 2.88 ± 0.44.

On to NWLHRRLAGQFLEELRKFSSLCYK [MOG], for which the protein stability index came out at 2.5 ± 0.15 under setting [1] and 2.57 ± 0.27 under setting [2].

For PASAPGEPRQRRLLLLDLLALYTP [ANKRD9], the protein stability index worked out at 2.25 ± 0.071 under setting [1] and 2.02 ± 0.48 under setting [2].

Consider PCGPNMSEVSCKKRDDYLEWPEYF [DCTD], for which the protein stability index runs as follows: under setting [1], 3.56 ± 0.23; under setting [2], 3.6 ± 0.26.

Take PCSPDSSSVCVQGRCIHAGCDRII [ADAMTS4]: the protein stability index runs as follows: under setting [1], 3.84 ± 0.58; under setting [2], 3.67 ± 0.25.

With PCVAESPTVHVEVHQRGSSTAKKE [TRIP13], the protein stability index came out at 5.42 ± 0.39 under setting [1] and 5.35 ± 0.087 under setting [2].

In the case of PDFNPEKHGSLNRYHNSHPLRERA [YJU2B], the protein stability index under setting [1] came out at 4.36 ± 0.21 and the protein stability index under setting [2] was found to be 4.37 ± 0.29.

As to PDKKKRPRRSLSISKNKKKASNSI [FAN1], the protein stability index under setting [1] turned out to be 4.56 ± 0.2 and the protein stability index under setting [2] worked out at 4.76 ± 0.068.

Consider PDMETKLLFMTSRVRFGQQKRYQD [INTS3], for which the protein stability index reads like this: under setting [1], 2.92 ± 0.24; under setting [2], 3.09 ± 0.32.

For PDQAYDFLLKFLLVGDRDVGKSEI [RAB40A], the protein stability index runs as follows: under setting [1], 2.46 ± 0.39; under setting [2], 2.35 ± 0.3.

On to PEHGDRVAELFCRRCRRCVCALCP [TRIM14], for which the protein stability index reads like this: under setting [1], 3.29 ± 0.55; under setting [2], 3.5 ± 0.1.

Consider PELTPEEEQATKQFLEEINKWTVQ [PTPN9], for which the protein stability index is, setting by setting: under setting [1], 5.01 ± 0.23; under setting [2], 4.86 ± 0.12.

Regarding PEMNGNGAVAPMDFTTAAEDQPIN [NOL4L], the protein stability index is 5.35 ± 0.26 under setting [1] and 5.47 ± 0.15 under setting [2].

Sequence PEYTYGISNIDTTIEGTSDDLTVV [MFF] had a protein stability index under setting [1] of 4.61 ± 0.15 and a protein stability index under setting [2] of 4.56 ± 0.078.

Regarding PGGLVGSADVVSPSGHSDAQTLAM [PPFIA4], the protein stability index by setting is: under setting [1], 4.57 ± 0.22; under setting [2], 4.43 ± 0.93.

PGKINCLRNCKTYQARKPLWFYNT [RHOBTB3]: the protein stability index is, setting by setting: under setting [1], 2.59 ± 0.41; under setting [2], 2.76 ± 0.47.

Regarding PHRVLETRGHAISILFGFWTSFIC [SMIM2], the protein stability index is 2.46 ± 0.41 under setting [1] and 2.32 ± 0.18 under setting [2].

Turning to PIIYFNDYWNLQKDYYPINESLAS [CLPTM1], the protein stability index is, setting by setting: under setting [1], 2.71 ± 0.85; under setting [2], 2.06 ± 0.2.

As for PILQEGMDEEKLKQLNCVEISALN [DLC1], the protein stability index under setting [1] amounted to 5.08 ± 0.15 and the protein stability index under setting [2] was determined as 4.87 ± 0.15.

Consider PILSRSTSTGSAASSGSNSSASSE [SPRY1], for which the protein stability index turned out to be 5.42 ± 0.22 under setting [1] and 5.44 ± 0.19 under setting [2].

With PKPEPPQLVLAYDYSREVNTTEEL [FEM1A], the protein stability index was 5.03 ± 0.19 under setting [1] and 4.94 ± 0.31 under setting [2].

On to PKTNEDFEFLYNALEFWRQEELTR [IQUB], for which the protein stability index reads like this: under setting [1], 2.63 ± 0.31; under setting [2], 2.23 ± 0.43.

Consider PLDAGEYCVPRGNRRRFRVRQPIL [BEX1], for which the protein stability index by setting is: under setting [1], 3.47 ± 0.42; under setting [2], 3.63 ± 0.25.

On to PLGAGNLGPELIKESNANPIFMRK [DPCD], for which the protein stability index runs as follows: under setting [1], 4.34 ± 0.27; under setting [2], 4.54 ± 0.23.

For PLLPPAMGTEPAPSAPEALHSLPG [TBX6], the protein stability index runs as follows: under setting [1], 5.07 ± 0.074; under setting [2], 5.06 ± 0.16.

For the sequence PLWPGKSDVDQLYLIIRTLGKLIP [CDKL4], the protein stability index came out at 3.04 ± 0.39 under setting [1] and 2.34 ± 0.61 under setting [2].

Regarding PNEAMVVSGFCRSPPVMVAGGRVF [FLOT1], the protein stability index runs as follows: under setting [1], 2.2 ± 0.2; under setting [2], 2.42 ± 0.26.

PNILFYASTVLKSVGFQSNEAASL [SLC2A12]: the protein stability index was 2.25 ± 0.33 under setting [1] and 2.38 ± 0.15 under setting [2].

Consider PPRTIKRTRRRLSRNRDPGRLILS [PWWP2B], for which the protein stability index by setting is: under setting [1], 4.37 ± 0.27; under setting [2], 4.52 ± 0.35.

As for PPSALDQLSRLNITYPMLFKLTNK [UFD1], the protein stability index is, setting by setting: under setting [1], 2.48 ± 0.27; under setting [2], 2.96 ± 0.095.

For PPTINGIKGLQRKERLKPAHIHLQ [KRT34], the protein stability index came to 3.34 ± 0.15 under setting [1] and 3.59 ± 0.46 under setting [2].

Consider PPVTDLGELRRRPGDMKTKMELLI [CPOX], for which the protein stability index reads like this: under setting [1], 3.2 ± 0.36; under setting [2], 3.03 ± 0.3.

Take PRPRPVSLSLRLPHQPVTAITRVS [SMTNL2]: the protein stability index under setting [1] amounted to 3.42 ± 0.24 and the protein stability index under setting [2] worked out at 3.58 ± 0.27.

PRRCHSAPPQGSCGDELPWTLQRR [PLEKHN1] displayed a protein stability index under setting [1] of 4.79 ± 0.15 and a protein stability index under setting [2] of 4.7 ± 0.23.

PRRVCVGGKRRRDDISVDSLDFTK [PPP2R2C] had a protein stability index under setting [1] of 3.79 ± 0.16 and a protein stability index under setting [2] of 3.9 ± 0.38.

As to PRSHFTTPAPMSSAWKTVACGGTR [MYBL2], the protein stability index worked out at 2.77 ± 0.32 under setting [1] and 2.84 ± 0.17 under setting [2].

PRTNEWTYVAKMSEPHYGHAGTVY [KLHL13]: the protein stability index under setting [1] was 2.44 ± 0.21 and the protein stability index under setting [2] amounted to 2.61 ± 0.24.

With PSPEPAGRRAALYVHWPYCEKRCS [RSAD1], the protein stability index amounted to 2.78 ± 0.26 under setting [1] and 3.02 ± 0.41 under setting [2].

Turning to PTLAKFSPYLGQMINLRRLLLSHI [PRAME], the protein stability index by setting is: under setting [1], 2.33 ± 0.42; under setting [2], 2.15 ± 0.11.

As for PTLWTEQVKSRQNKTNKNSVSSCD [SMOC2], the protein stability index is, setting by setting: under setting [1], 4.81 ± 0.28; under setting [2], 4.84 ± 0.12.

For PTSPVQGTTPQISPSTLIGSLRTL [HDAC6], the protein stability index is, setting by setting: under setting [1], 3.77 ± 0.22; under setting [2], 3.79 ± 0.26.

Regarding PVAMRVAKLAINQGMEVDLVTGLA [AUH], the protein stability index under setting [1] amounted to 2.65 ± 0.29 and the protein stability index under setting [2] was found to be 2.92 ± 0.5.

The sequence PVENIPEIILYWKHSTIFDVGENL [SLC25A25] yielded a protein stability index under setting [1] of 2.37 ± 0.41 and a protein stability index under setting [2] of 2.02 ± 0.44.

In turn, PVESHIQKNKKILKSAKDLPPDAL [KMT2E] returned a protein stability index under setting [1] of 4.86 ± 0.24 and a protein stability index under setting [2] of 4.71 ± 0.44.

For PVSGKAVFMEFGPPNQQMSPSPMS [DLX1], the protein stability index runs as follows: under setting [1], 3.5 ± 0.26; under setting [2], 3.55 ± 0.41.

For PYARIQQSRRQCHAEEDQSQVPEA [SMIM2], the protein stability index came to 5.3 ± 0.19 under setting [1] and 5.19 ± 0.14 under setting [2].

With QALEQFAAAAAHSTPVRREVTDKE [EPB41L3], the protein stability index is, setting by setting: under setting [1], 5.02 ± 0.22; under setting [2], 4.89 ± 0.41.

As for QDDSKPTQRQFTILNFNDLMSSAV [AASDHPPT], the protein stability index is 2.86 ± 0.31 under setting [1] and 2.97 ± 0.28 under setting [2].

Consider QEAPLQDDSCLNNDIPHSIPLEQG [FAN1], for which the protein stability index by setting is: under setting [1], 5.25 ± 0.34; under setting [2], 5.27 ± 0.17.

Turning to QERSRVLNQVADLLEQSLEEFAQA [ALDH8A1], the protein stability index runs as follows: under setting [1], 3.94 ± 0.28; under setting [2], 4.26 ± 0.19.

QFHALQSKLEERFGPDSKSSALAC [NCF4]: the protein stability index runs as follows: under setting [1], 3.5 ± 0.28; under setting [2], 3.6 ± 0.54.

Consider QFYGYLSQQQNMMQDYVRTGTYQR [CARM1], for which the protein stability index reads like this: under setting [1], 2.47 ± 0.086; under setting [2], 2.72 ± 0.22.

Take QGDSADETTAHKTEEENSDSDSD [CMTM3]: the protein stability index turned out to be 5.6 ± 0.2 under setting [3] and 5.7 ± 0.23 under setting [4].

Take QHVPEELDLSSSSQMSPLSLYGEN [ATF6]: the protein stability index by setting is: under setting [1], 4.97 ± 0.19; under setting [2], 5 ± 0.18.

In the case of QICAQVSFFFPPVNLPISFFRKLL [NLN], the protein stability index is, setting by setting: under setting [1], 2.76 ± 0.039; under setting [2], 3.45 ± 0.17.

On to QIGCKLPDDYRCSYRIHNGQKLVV [FBXO3], for which the protein stability index is 2.06 ± 0.26 under setting [1] and 2.18 ± 0.24 under setting [2].

Sequence QIKCIELKSELGRKWHKASNYIFV [P2RY14] yielded a protein stability index under setting [1] of 2.72 ± 0.93 and a protein stability index under setting [2] of 2.67 ± 0.47.

With QINDGMGGDGDDMEIFMEEMREIR [BEX3], the protein stability index is, setting by setting: under setting [1], 4.81 ± 0.17; under setting [2], 4.75 ± 0.28.
